The results in this text go back to paper PMC3716865.

The target in assay [1] is Intracellular part of Medicago truncatula Cytokinin Receptor 1 (MtCRE1′) (Medicago truncatula). The assay can be described thus: dynamic light scattering.
The target is the same in assay [2]. The assay can be described thus: SEC. On the technique in general: SEC sorts molecules by how far they enter the pores of the column.

The stoichiometry N is the number of molecules, sites or subunits per partner or assembly.

For the substance “Intracellular part of Medicago truncatula Cytokinin Receptor 1 (MtCRE1′) (domain or fragment)”, the stoichiometry N in assay [1] and in assay [2] was 2 in each case.
